# In the supplement of paper PMC9112550, “Optimization of the antimicrobial peptide Bac7 by deep mutational scanning” (BMC Biology, 2022):
# System: Escherichia coli TOP10
# Experiment: shrunken log2 fold change of peptide-encoding DNA abundance (4.5 h post-induction vs induction); higher = less antimicrobial activity (less host growth inhibition)
# Conditions: time post-induction: 4.5 h; library: site-saturation at positions 5, 18, 19, 20
# 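Further: peptides expressed intracellularly from a pBAD plasmid library in pooled LB shake-flask culture, induced with 0.3% L-arabinose, DNA abundance read by NGS, three biological replicates, DESeq2 with apeglm shrinkage.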
row,Sequence,shrunken log2 fold change
1,RRIRSRPPRLPRPRPRPIPLPRP,-0.115
2,RRIRQRPPRLPRPRPRPSYFPRP,-0.515
3,RRIRQRPPRLPRPRPRPTTSPRP,0.1
4,RRIRRRPPRLPRPRPRPLGPPRP,0.304
5,RRIRGRPPRLPRPRPRPHHLPRP,0.374
6,RRIRYRPPRLPRPRPRPAHWPRP,0.0585
7,RRIRPRPPRLPRPRPRPGMAPRP,0.204
8,RRIRYRPPRLPRPRPRPTLFPRP,-0.145
9,RRIRWRPPRLPRPRPRPGGWPRP,0.851
10,RRIRIRPPRLPRPRPRPVCTPRP,-0.159
11,RRIRMRPPRLPRPRPRPSCWPRP,0.594
12,RRIRCRPPRLPRPRPRPTADPRP,0.363
13,RRIRARPPRLPRPRPRPGLLPRP,0.547
14,RRIRNRPPRLPRPRPRPVQLPRP,0.176
15,RRIRPRPPRLPRPRPRPADEPRP,0.0954
16,RRIRMRPPRLPRPRPRPDAWPRP,2.59
17,RRIRWRPPRLPRPRPRPLCCPRP,0.0117
18,RRIRCRPPRLPRPRPRPGATPRP,0.512
19,RRIRCRPPRLPRPRPRPVLMPRP,-0.00563
20,RRIRPRPPRLPRPRPRPCVCPRP,0.0289
21,RRIRSRPPRLPRPRPRPGMKPRP,-0.0636
22,RRIRPRPPRLPRPRPRPYVMPRP,-0.706
23,RRIRFRPPRLPRPRPRPTQYPRP,-0.261
24,RRIRWRPPRLPRPRPRPPSSPRP,0.778
25,RRIRVRPPRLPRPRPRPAIEPRP,0.0433

row,Sequence,shrunken log2 fold change
1,RRIRARPPRLPRPRPRPYWKPRP,-0.0819
2,RRIRPRPPRLPRPRPRPEVNPRP,0.188
3,RRIRSRPPRLPRPRPRPHNKPRP,-0.71
4,RRIRMRPPRLPRPRPRPHPNPRP,0.299
5,RRIRERPPRLPRPRPRPYEQPRP,-0.395
6,RRIRVRPPRLPRPRPRPVNSPRP,-0.184
7,RRIRCRPPRLPRPRPRPDKPPRP,0.0422
8,RRIRKRPPRLPRPRPRPSSEPRP,0.2
9,RRIRLRPPRLPRPRPRPDIEPRP,0.0333
10,RRIRMRPPRLPRPRPRPPILPRP,0.0619
11,RRIRGRPPRLPRPRPRPQYVPRP,-0.0061
12,RRIRERPPRLPRPRPRPKPGPRP,0.469
13,RRIRNRPPRLPRPRPRPYYQPRP,-0.697
14,RRIRIRPPRLPRPRPRPCSMPRP,-0.00947
15,RRIRKRPPRLPRPRPRPACQPRP,0.0289
16,RRIRMRPPRLPRPRPRPKRIPRP,0.609
17,RRIRTRPPRLPRPRPRPFTEPRP,-0.21
18,RRIRHRPPRLPRPRPRPSGAPRP,-0.0845
19,RRIRVRPPRLPRPRPRPKMDPRP,-0.093
20,RRIRSRPPRLPRPRPRPPLTPRP,0.367
21,RRIRRRPPRLPRPRPRPKMHPRP,0.443
22,RRIRFRPPRLPRPRPRPTGTPRP,0.0314
23,RRIRERPPRLPRPRPRPNLEPRP,-0.228
24,RRIRPRPPRLPRPRPRPCYKPRP,-1.32
25,RRIRGRPPRLPRPRPRPWGDPRP,0.41

row,Sequence,shrunken log2 fold change
1,RRIRWRPPRLPRPRPRPIWAPRP,0.00581
2,RRIRYRPPRLPRPRPRPKIVPRP,-0.188
3,RRIRKRPPRLPRPRPRPLYDPRP,-0.0647
4,RRIRPRPPRLPRPRPRPDNSPRP,-0.228
5,RRIRNRPPRLPRPRPRPADYPRP,-0.24
6,RRIRTRPPRLPRPRPRPPTIPRP,-0.248
7,RRIRERPPRLPRPRPRPIDYPRP,-0.0881
8,RRIRFRPPRLPRPRPRPMLTPRP,-0.351
9,RRIRPRPPRLPRPRPRPYFSPRP,-0.31
10,RRIRCRPPRLPRPRPRPPWGPRP,0.122
11,RRIRDRPPRLPRPRPRPKRVPRP,-0.0521
12,RRIRHRPPRLPRPRPRPEVCPRP,0.116
13,RRIRYRPPRLPRPRPRPNGKPRP,-0.186
14,RRIRYRPPRLPRPRPRPNQEPRP,0.000655
15,RRIRTRPPRLPRPRPRPWYWPRP,-0.0177
16,RRIRIRPPRLPRPRPRPSRDPRP,-0.0607
17,RRIRHRPPRLPRPRPRPVKFPRP,-0.0191
18,RRIRWRPPRLPRPRPRPNTEPRP,-0.324
19,RRIRCRPPRLPRPRPRPMSDPRP,0.113
20,RRIRIRPPRLPRPRPRPQPDPRP,-0.483
21,RRIRPRPPRLPRPRPRPEVEPRP,-0.00972
22,RRIRYRPPRLPRPRPRPRSCPRP,-0.434
23,RRIRHRPPRLPRPRPRPCLVPRP,0.214
24,RRIRNRPPRLPRPRPRPAYYPRP,-0.0433
25,RRIRTRPPRLPRPRPRPICIPRP,-0.196

row,Sequence,shrunken log2 fold change
1,RRIRYRPPRLPRPRPRPRNNPRP,-0.738
2,RRIRERPPRLPRPRPRPSDHPRP,-0.133
3,RRIRWRPPRLPRPRPRPNACPRP,0.478
4,RRIRFRPPRLPRPRPRPVFSPRP,-0.293
5,RRIRVRPPRLPRPRPRPSFIPRP,-0.749
6,RRIRWRPPRLPRPRPRPLVIPRP,-0.0698
7,RRIRVRPPRLPRPRPRPCSGPRP,-0.0235
8,RRIRVRPPRLPRPRPRPALKPRP,0.253
9,RRIRWRPPRLPRPRPRPCADPRP,0.579
10,RRIRGRPPRLPRPRPRPVHNPRP,0.259
11,RRIRLRPPRLPRPRPRPPHTPRP,0.26
12,RRIRFRPPRLPRPRPRPSCFPRP,-0.0773
13,RRIRFRPPRLPRPRPRPMVIPRP,0.023
14,RRIRDRPPRLPRPRPRPHLWPRP,0.611
15,RRIRWRPPRLPRPRPRPLTTPRP,0.235
16,RRIRLRPPRLPRPRPRPSCPPRP,-0.169
17,RRIRKRPPRLPRPRPRPKKAPRP,0.0547
18,RRIRRRPPRLPRPRPRPVLGPRP,0.528
19,RRIRPRPPRLPRPRPRPWLHPRP,-0.173
20,RRIRIRPPRLPRPRPRPCTVPRP,-0.337
21,RRIRIRPPRLPRPRPRPFHFPRP,-0.27
22,RRIRPRPPRLPRPRPRPRMAPRP,0.278
23,RRIRLRPPRLPRPRPRPKVFPRP,0.0303
24,RRIRERPPRLPRPRPRPECIPRP,0.248
25,RRIRYRPPRLPRPRPRPIERPRP,0.0253

row,Sequence,shrunken log2 fold change
1,RRIRFRPPRLPRPRPRPMAIPRP,-0.226
2,RRIRIRPPRLPRPRPRPLNDPRP,-0.351
3,RRIRKRPPRLPRPRPRPERQPRP,0.0351
4,RRIRYRPPRLPRPRPRPVDWPRP,0.145
5,RRIRPRPPRLPRPRPRPYMWPRP,-0.455
6,RRIRCRPPRLPRPRPRPDDDPRP,0.0464
7,RRIRWRPPRLPRPRPRPNSWPRP,-0.0727
8,RRIRVRPPRLPRPRPRPDYNPRP,-0.554
9,RRIRWRPPRLPRPRPRPCTPPRP,-0.0412
10,RRIRVRPPRLPRPRPRPPDDPRP,0.107
11,RRIRWRPPRLPRPRPRPQTCPRP,0.108
12,RRIRIRPPRLPRPRPRPDSVPRP,0.0234
13,RRIRPRPPRLPRPRPRPMAVPRP,0.0404
14,RRIRERPPRLPRPRPRPRLFPRP,0.00738
15,RRIRFRPPRLPRPRPRPATVPRP,0.00554
16,RRIRFRPPRLPRPRPRPESDPRP,0.17
17,RRIRERPPRLPRPRPRPPWSPRP,-0.0222
18,RRIRPRPPRLPRPRPRPNVAPRP,-0.215
19,RRIRQRPPRLPRPRPRPIAGPRP,0.139
20,RRIRCRPPRLPRPRPRPDIFPRP,-0.262
21,RRIRCRPPRLPRPRPRPMFYPRP,-0.525
22,RRIRTRPPRLPRPRPRPIHVPRP,0.00961
23,RRIRVRPPRLPRPRPRPPCDPRP,0.52
24,RRIRGRPPRLPRPRPRPWCAPRP,0.407
25,RRIRMRPPRLPRPRPRPYRHPRP,0.0311
